Patent publication US20120328589A1

Target: mannose receptor (on NR8383 rat alveolar macrophages) (rat)
Experiment: cell-based or functional assay

Substance	uptake by rat alveolar macrophages in the absence of mannan (GCD activity in cell lysate, pNP-G assay)	uptake by rat alveolar macrophages, reduction by mannan (GCD activity in cell lysate, pNP-G assay)
Plant recombinant human glucocerebrosidase (prh-GCD) (from UniProt P04062 40-536) (enzyme)	333 ng/mL lysate	90%
prh-GCD cross-linked with bis-NHS-PEG5 at a 50:1 bis-NHS-PEG5:GCD molar ratio (from UniProt P04062 40-536) (enzyme)	200 ng/mL lysate	85%
